{"source": "paper PMC6331586", "about": "“Rapid determination of quaternary protein structures in complex biological samples” (Nature Communications, 2019)", "binders": {"B1": {"name": "M1 protein (amino acids 42–484), recombinant (domain or fragment)", "chain": "NGDGNPREVIEDLAANNPAIQNIRLRYENKDLKARLENAMEVAGRDFKRAEELEKAKQALEDQRKDLETKLKELQQDYDLAKESTSWDRQRLEKELEEKKEALELAIDQASRDYHRATALEKELEEKKKALELAIDQASQDYNRANVLEKELETITREQEINRNLLGNAKLELDQLSSEKEQLTIEKAKLEEEKQISDASRQSLRRDLDASREAKKQVEKDLANLTAELDKVKEDKQISDASRQGLRRDLDASREAKKQVEKDLANLTAELDKVKEEKQISDASRQGLRRDLDASREAKKQVEKALEEANSKLAALEKLNKELEESKKLTEKEKAELQAKLEAEAKALKEQLAKQAEELAKLRAGKASDSQTPDTKPGNKAVPGKGQAPQAGTKPNQNKAPMKETKRQLPSTGETANPFFTAAALTVMATAGVAAVVKRKEEN", "notes": "source: E. coli BL21 (DE3), purified (fibrinogen column, Ni-coupled Imac Sepharose)"}}, "target": "human serum albumin (human, UniProt P02768 25-609)", "test": "cross-linking", "details": "both partners purified"}
{"binder": "B1", "values": [{"measurement": "binding result", "result": "binds"}]}
